Where two headings read alike, the source gives them in different places.
Key:
Efb-A30-67 [1] = target: T1, Efb-A30-67 (Staphylococcus aureus strain Newman, UniProt P08515 1-218 = GST; A6QG59 30-67)
[2] = target: T2, Coa-R0474-505 (recombinant protein) (Staphylococcus aureus strain Newman); experiment: apparent Kd from half-maximal binding in ELISA (GraphPad Prism)
T2 chain: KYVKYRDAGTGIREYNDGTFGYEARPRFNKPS

Coa-C (Coa 311-636) [3] = target: T3, Coa-C (Coa 311-636) (Staphylococcus aureus strain Newman, UniProt P08515 1-218 = GST); experiment: as above
T3 construct: also called rCoa-C; Coa-C311-636

Coa-F (Coa 311-505) [4] = target: T4, Coa-F (Coa 311-505) (Staphylococcus aureus strain Newman, UniProt P08515 1-218 = GST); experiment: as above
[5] = target: T2, Coa-R0474-505 (recombinant protein)
[6] = target: T5, recombinant Efb-O (Efb 68-98) (Staphylococcus aureus strain Newman, UniProt P08515 1-218 = GST); experiment: apparent Kd from half-maximal binding in ELISA (GraphPad Prism)
Efb-N30-105 [7] = target: T6, Efb-N30-105 (Staphylococcus aureus strain Newman, UniProt A6QG59 30-105); experiment: as above
T6 sequence: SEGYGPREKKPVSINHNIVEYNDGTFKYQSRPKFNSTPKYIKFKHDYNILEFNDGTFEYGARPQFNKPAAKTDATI

Efb-A30-67 [8] = target: T1, Efb-A30-67; experiment: as above
Coa-R (Coa 506-636) [9] = target: T7, Coa-R (Coa 506-636) (Staphylococcus aureus strain Newman); experiment: ELISA, antigen coated 200 ng/well, scFv-Fc at 0.5 µg/ml
[10] = target: T5, recombinant Efb-O (Efb 68-98); experiment: solid-phase binding assay, titration (FIG. 24)
Efb-N30-105 [11] = target: T6, Efb-N30-105; experiment: solid-phase binding assay, titration (FIG. 24)
Efb-A30-67 [12] = target: T1, Efb-A30-67; experiment: solid-phase binding assay, titration (FIG. 24)
Coa-C (Coa 311-636) [13] = target: T3, Coa-C (Coa 311-636); experiment: apparent Kd from half-maximal binding in ELISA (GraphPad Prism); column head prints M, the text prints µM
Coa-C (Coa 311-636) [14] = target: T3, Coa-C (Coa 311-636)
Coa-R (Coa 506-636) [15] = target: T7, Coa-R (Coa 506-636)
Coa-F (Coa 311-505) [16] = target: T4, Coa-F (Coa 311-505)
[17] = target: T2, Coa-R0474-505 (recombinant protein); experiment: apparent Kd from half-maximal binding in ELISA (GraphPad Prism)
Protocol: (§1) As well, binding was tested against Coa fragments, namely Coa-C₃₁₁₋₆₃₆, Coa-F₃₁₁₋₅₀₅, Coa-R0₄₇₄₋₅₀₅ and Coa-R₅₀₆₋₆₃₆. Recombinant proteins Efb-N₃₀₋₁₀₅, Efb-A₃₀₋₆₇, Efb-O₆₈₋₉₈, Coa-C₃₁₁₋₆₃₆, Coa-F₃₁₁₋₅₀₅, Coa-R0₄₇₄₋₅₀₅ and Coa-R₅₀₆₋₆₃₆ were diluted in 50 mM sodium carbonate pH 9.6 and immobilized at the concentration of 200 ng/well for 1 hour at room temperature. Immobilized proteins were probed for recognition in a solid-phase binding assay with different quantities of LIG40 antibodies after blocking and washing. After washing, varying concentrations of LIG40 scFv-Fc antibodies were diluted in 2% BSA+1×PBS+0.05% Tween-20 and incubated with the immobilized proteins for 1 hour at room temperature with shaking at 250 rpm. Bound scFv-Fcs were detected using polyclonal α-human IgG HRP-conjugated Ab diluted to 1:10000 in 2% BSA+1×PBS+0.05% Tween-20. HRP-conjugated Ab was incubated for 1 hour at room temperature with shaking at 250 rpm. HRP signal was developed with Sigma FAST-OPD using manufacturers guidelines.

Coa-R (Coa 506-636) [18] = target: T7, Coa-R (Coa 506-636); experiment: as above
Protocol: as §1

Coa-F (Coa 311-505) [19] = target: T4, Coa-F (Coa 311-505); experiment: as above; remark: listed apart in the source
Protocol: as §1

BSA = target: T8, BSA (bovine, UniProt P02769 25-607); experiment: solid-phase binding assay (FIG. 24)
T8 construct: also called bovine serum albumin
T8 sequence (P02769 25-607 limits assumed): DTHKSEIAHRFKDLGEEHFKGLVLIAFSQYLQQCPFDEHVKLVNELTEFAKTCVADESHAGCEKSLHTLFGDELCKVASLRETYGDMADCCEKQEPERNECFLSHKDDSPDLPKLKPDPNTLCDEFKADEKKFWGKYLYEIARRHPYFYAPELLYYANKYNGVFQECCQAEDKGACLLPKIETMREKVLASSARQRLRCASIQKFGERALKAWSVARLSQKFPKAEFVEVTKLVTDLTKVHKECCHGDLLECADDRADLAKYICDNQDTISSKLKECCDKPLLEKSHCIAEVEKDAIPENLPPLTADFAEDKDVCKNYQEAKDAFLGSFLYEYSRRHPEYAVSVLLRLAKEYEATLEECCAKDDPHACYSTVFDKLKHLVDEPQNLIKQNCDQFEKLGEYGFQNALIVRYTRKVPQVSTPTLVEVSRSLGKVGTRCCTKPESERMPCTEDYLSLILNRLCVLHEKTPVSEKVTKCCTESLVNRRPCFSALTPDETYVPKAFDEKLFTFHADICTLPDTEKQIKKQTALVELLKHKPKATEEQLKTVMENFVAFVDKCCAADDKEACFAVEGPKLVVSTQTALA

Coa-C (Coa 311-636) [20] = target: T3, Coa-C (Coa 311-636); remark: listed apart in the source
[21] = target: T5, recombinant Efb-O (Efb 68-98)
Efb-N30-105 [22] = target: T6, Efb-N30-105
Coa-F (Coa 311-505) [23] = target: T4, Coa-F (Coa 311-505); remark: listed apart in the source

Binder	Kd [2] [nM]	Kd (Coa-C (Coa 311-636) [3]) [nM]	Kd (Coa-F (Coa 311-505) [4]) [nM]	EC50 (read off the curve) [5] [µg/mL]	Kd [6] [nM]	Kd (Efb-N30-105 [7]) [nM]	Kd (Efb-A30-67 [8]) [nM]	binding result (Coa-R (Coa 506-636) [9])	EC50 (read off the curve) (Coa-C (Coa 311-636) [20]) [µg/mL]	other results
FBE5-A5 (scFv, V domains shown) VH: EVQLVQSGGGVVQPGRSLRLSCAASGFTFSSYGMHWVRQAPGKGLEWVAVISYDGSNKYYADSVKGRFTISRDNSKNTLYLQMNSLRAEDTAVYYCAKAGPDSYGYGMDVWGQGTTVTVSS VL: not shown	1.86	5.34	1.47	~0.2	4.27	3.24	4.38	no binding (tested: 0.5 µg/ml)	–	EC50 (read off the curve) (Efb-A30-67 [1]): ~0.4 µg/mL
FBE5-A6 (scFv, V domains shown) VH: QVQLVQSGGGVVQPGRSLRLSCAASGFTFSSYGMHWVRQAPGKGLEWVAVISYDGSNKYYADSVKGRFTISRDNSKNTLYLQMNSLRAEDTAVYYCAKAGDDDYGHYFDYWGQGTLVTVSS VL: not shown	1.9	1.24	1.15	~0.2	13	3.54	8.54	no binding (tested: 0.5 µg/ml)	–	–
FBE5-C1 (scFv, V domains shown) VH: EVQLVETRGGVVQPGRSLRLSCAASGFTFSSYGMHWVRQAPGKGLEWVAVISYDGSNKYYADSVKGRFTISRDNSKNTLYLQMNSLRAEDTAVYYCAREGTYYYDSSGYYEGGFDYWGQGTLVTVSS VL: QSVLTQPPSASGTPGQRVTISCSGSSSNIGSGPVNWYQQLPGTAPKLLIYSDTRRPSGIPDRLSGSKSGTSASLGISGLQSEDEADYYCAAWDDSLNGYAFGSGTKVTVL	24.3	1.13	4.59	–	–	–	40.9	no binding (tested: 0.5 µg/ml)	–	–
LIG40-D8 (scFv, V domains shown) VH: EVQLVESGGGVVQPGRSLRLSCAASGFTFSSYGMHWVRQAPGKGLEWVAVIWYDGSNKYYADSVKGRFTISRDNSKNTLYLQMNSLRAEDTAVYYCARDYHGDGFDYWGQGTLVTVSS VL: DIQMTQSPSSLSASVGDTVTITCRASQDINNYLAWFQQKPGKAPKSLISAASSLQNGVPLRFSGSASGADFTLTISGLQPEDSGTYYCQQYDVFPITFGPGTKVDIK	–	–	–	–	–	–	–	–	–	binding result [10]: no binding; binding result (Efb-N30-105 [11]): no binding; binding result (Efb-A30-67 [12]): no binding; Kd (Coa-C (Coa 311-636) [13]): 0.0939 nM; EC50 (read off the curve) (Coa-C (Coa 311-636) [14]): ~0.01 µg/mL; EC50 (read off the curve) (Coa-R (Coa 506-636) [15]): ~0.01 µg/mL; EC50 (read off the curve) (Coa-F (Coa 311-505) [16]): ~0.01 µg/mL; Kd [17]: 2.52 nM; Kd (Coa-R (Coa 506-636) [18]): 0.0862 nM; Kd (Coa-F (Coa 311-505) [19]): 0.112 nM; binding result (BSA): no binding
FBE5-A12 (scFv, V domains shown) VH: QVQLVESGGGVVQPGRSLRLSCAASGFTFSSYGMHWVRQAPGKGLEWVAVISYDGSNKYYADSVKGRFTISRDNSKNTLYLQMNSLRGEDTAVYYCAREGGWEPNGLDYWGQGTLVTVSS VL: QAVLTQPPSASGTPGQRVTISCSGSDFNVGTNYVNWYQQLPGSAPKLLIYRNNQRPSGVPDRFSGSKSGTSATLGITGLQTGDEADYYCGTWDSSLSAEVFGGGTKLTVL	2.44	0.555	0.647	–	–	–	–	no binding (tested: 0.5 µg/ml)	~0.06	–
FBE5-B9 (scFv, V domains shown) VH: EVQLVESRGGVVQPGRSLRLSCAASGFTFSSYGMHWVRQAPGRGLEWVAVISYDGSNKYYADSVKGRFTISRDNSKNTLYLQMNGLRSDDTAVYYCARGGDDYGDYFDYWGQGTLVTVSS VL: QSVLTQPPSVSAAPGQKVTISCSGSSSNIGNNYVSWYQQLPGTAPKLLIYDNNKRPSGIPDRFSGSKSGTSATLGITGLQTGDEADYYCGTWDSSLSAAVFGGGTKLTVL	2.19	1.74	1.12	~0.2	8.27	3.45	25.9	no binding (tested: 0.5 µg/ml)	–	–
FBE5-C8 (scFv, V domains shown) VH: QMQLVQSGGGVVQPGRSLRLSCAASGFIFSNYGMHWVRQAPGKGLEWVAVISYDGSNKYYADSVKGRFTISRDNSKNTLYLQMDSLRAEDTAVYYCAREGVGGDYGDLPTGPYYYYGMDVWGQGTTVTVSS VL: QSVLTQPPSVSAAPGQKVTISCSGSSSNIGNNSVSWYQQLPGTAPKLLIYDNNKRPSGIPDRFSGSKSGTSATLGITGLQTGDEADYYCETWDSSLSAVVFGGGTKLTVL	–	13.5	7	–	–	–	–	no binding (tested: 0.5 µg/ml)	–	–
FBE5-F9 (scFv, V domains shown) VH: QMQLVQSGGGVVQPGRSLRLSCAASGFTFSSYGMHWVRQAPGKGLEWVAVISYDGSNKYYADSVKGRFTISRDNSKNTLYLQMNSLRAEDTAVYYCAKEGDGDYGGVLDYWGQGTLVTVSS VL: QSVLTQPPSVSAAPGQKVTISCSGSSSNIEKNYVSWYQQLPGTAPKLLIYDNNKRPSGIPDRFSGSKSGTSATLGITGLQTGDEADYYCGTWDSSLSAVVFGGGTKLTVL	3.16	2.85	1.63	–	7.97	6.01	21.5	no binding (tested: 0.5 µg/ml)	–	–
FBE5-D9 (scFv, V domains shown) VH: QVQLVESGGGVVQPGRSLRLSCAASGFTFSSYGMHWVRQAPGKGLEWVAVISYDGSNKYYADSVKGRFTISRDNSKNTLYLQMNSLRAEDTAVYYCAKNQEWLVPGYWGQGTLVTVSS VL: QSALTQPASVSGSPGQSITISCTGTSSDVGGYNYVSWYQQHPGKAPKLMIYDVSNRPSGVSNRFSGSKSGNTASLTISGLQAEDEADYYCSSYTSSSTLVFGGGTKLTVL	1.14	0.779	0.536	~0.1	2.68	1.31	4.48	no binding (tested: 0.5 µg/ml)	~0.08	EC50 (read off the curve) [21]: ~0.3 µg/mL; EC50 (read off the curve) (Efb-N30-105 [22]): ~0.1 µg/mL; EC50 (read off the curve) (Coa-F (Coa 311-505) [23]): ~0.06 µg/mL
FBE5-D10 (scFv, V domains shown) VH: QVQLVQSGGGVVQPGRSLRLSCAASGFTFSNYGMHWVRQAPGKGLEWVAVISYDGSNKYYADSVKGRFTISRDNSKNTLYLQMNSLRAEDTAVYYCAKDSREQWLAHWGQGTLVTVSS VL: not shown	0.856	1.4	0.95	~0.08	3.65	1.97	1.57	no binding (tested: 0.5 µg/ml)	~0.1	EC50 (read off the curve) [21]: ~0.3 µg/mL; EC50 (read off the curve) (Efb-N30-105 [22]): ~0.2 µg/mL; EC50 (read off the curve) (Efb-A30-67 [1]): ~0.1 µg/mL; EC50 (read off the curve) (Coa-F (Coa 311-505) [23]): ~0.09 µg/mL
